Data set [1] has as its target recombinant SDF-1α (1-68), full length, 7.97 kDa.
In data set [2] the target is T1, Diprotin A (Ile-Pro-Ile).
T1 chain: IPI

B1: CD26/dipeptidylpeptidase IV (DPP-IV), endogenous enzyme in heart lysates of wild type C57BL/6 mice (protein)
chain: MKTPWKVLLGLLGVAALVTIITVPIVLLSKDEAAADSRRTYSLADYLKSTFRVKSYSLWWVSDFEYLYKQENNILLLNAEHGNSSIFLENSTFESFGYHSVSPDRLFVLLEYNYVKQWRHSYTASYNIYDVNKRQLITEEKIPNNTQWITWSPEGHKLAYVWKNDIYVKVEPHLPSHRITSTGEENVIYNGITDWVYEEEVFGAYSALWWSPNNTFLAYAQFNDTGVPLIEYSFYSDESLQYPKTVWIPYPKAGAVNPTVKFFIVNIDSLSSSSSAAPIQIPAPASVARGDHYLCDVVWATEERISLQWLRRIQNYSVMAICDYDKINLTWNCPSEQQHVEMSTTGWVGRFRPAEPHFTSDGSSFYKIISDKDGYKHICHFPKDKKDCTFITKGAWEVISIEALTSDYLYYISNQYKEMPGGRNLYKIQLTDHTNVKCLSCDLNPERCQYYAVSFSKEAKYYQLGCWGPGLPLYTLHRSTDHKELRVLEDNSALDRMLQDVQMPSKKLDFIVLNETRFWYQMILPPHFDKSKKYPLLLDVYAGPCSQKADASFRLNWATYLASTENIIVASFDGRGSGYQGDKIMHAINRRLGTLEVEDQIEAARQFVKMGFVDSKRVAIWGWSYGGYVTSMVLGSGSGVFKCGIAVAPVSRWEYYDSVYTERYMGLPIPEDNLDHYRNSTVMSRAEHFKQVEYLLIHGTADDNVHFQQSAQISKALVDAGVDFQAMWYTDEDHGIASSTAHQHIYSHMSHFLQQCFSLH
For the protein B1, the “mass spectrometry of recombinant SDF-1 incubated with heart lysates (cleavage product peak)” value in data set [1] was “lysates derived from wt animals also showed high abundance of a second peak at 7.748 kDa corresponding to N-terminal cleavage of SDF-1α by DPP-IV”. In data set [2], the “proteolytic DPP-IV activity (H-Gly-Pro-AMC) in myocardium and serum 2 days after MI” value was “Combined application of G-CSF and Diprotin A in wt mice ("G-CSF-DipA mice") lead to a decreased DPP-IV activity after MI only in the myocardium but not in the serum”.

The values are drawn from US20090297470.
